Results taken from US20110159598A1 (LES LABORATOIRES SERVIER, published 2011).
One block for each molecule: values may come before it. No end group written: not given here.

Experiments:
K63 polyubiquitin chains = assay: cell-based or functional assay
[1] = target: human NEMO mutant A323P, FLAG-tagged (human) (UniProt Q9Y6K9); assay: cell-based or functional assay
[2] = target: the molecule itself; assay: gel filtration on Superdex 75, same elution profile as the wild-type CC2-LZ protein
[3] = target: T1, CC2-LZ domain of NEMO (species and construct not stated for this assay) (Mus musculus (Mouse), UniProt O88522 251-337); assay: fluorescence polarisation, N-terminally Fluorescein- or Cy5-labelled peptide, pH 7, ambient temperature, 20 mM Tris-Acetate-MES, 200 mM KCl, 0.5% Tween 20
T1 construct: not shown: N-terminal histidine tag and vector residues from pET28
Experimental: These measurements are carried out at pH 7 and at ambient temperature in a stringent buffer corresponding to 20 mM Tris-Acetate-MES containing 200 mM potassium chloride and 0.5% Tween 20. They are carried out by fluorescence polarisation with the aid of peptides coupled at the N-terminal with the fluorophores Fluorescein or Cy5. For forming the peptide probes of the invention, the peptides can be coupled to any kind of fluorophore.

X-ray crystal structure = target: the molecule itself; assay: X-ray crystal structure

Molecule: human NEMO mutant F312A, FLAG-tagged (from UniProt Q9Y6K9 1-419)
inhibition of TNFα-dependent activation of the NF-κB pathway (Igκ-luciferase reporter in NEMO-deficient mouse embryo fibroblasts) (K63 polyubiquitin chains): 78%

Molecule: human NEMO mutant A323P, FLAG-tagged (from UniProt Q9Y6K9 1-419)
inhibition of TNFα-dependent activation of the NF-κB pathway (Igκ-luciferase reporter in NEMO-deficient mouse embryo fibroblasts) [1]: 95%

B1: human CC2-LZ domain of NEMO (Tax CC2-LZ, Met 215 to Glu 362) mutant F312A (other)
chain: MERQAASEEKRKLAQLQVAYHQLFQEYDNHIKSSVVGSERKRGMQLEDLKQQLQQAEEALVAKQEVIDKLKEEAEQHKIVMETVPVLKAQADIYKADAQAERQAREKLAEKKELLQEQLEQLQREYSKLKASCQESARIEDMRKRHVE
notes: also called CC2-LZ F312A; not shown: vector-derived tag of pET-28b (protein purified on Ni-NTA)
binding result [2]: binds

B3: CC2-LZ domain of murine NEMO (aa 251-337), N-terminal histidine tag (other)
chain: MQLEDLRQQLQQAEEALVAKQELIDKLKEEAEQHKIVMETVPVLKAQADIYKADFQAERHAREKLVEKKEYLQEQLEQLQREFNKLK
notes: Expressed in E. coli BL21-gold (DE3); Forms a parallel coiled-coil dimer in the crystal; also called CC2-LZ protein; Nemo CC2LZ; not shown: N-terminal histidine tag from plasmid pET28
binding result (X-ray crystal structure): binds

Other lines, results leading:

Kd [3]: 170 nM
B2: peptide PH4 (peptide)
peptide: TVAQLKAQHDIYEAEHQAVEHELEKLEEELEYIKEELEQLQREFNKLSG
modifications: also: N-terminal Fluorescein or Cy5
notes: Peptide probe designed from the crystal structure of the CC2-LZ domain

Kd [3]: 60 nM
B4: peptide P8RD (peptide)
peptide: TVAQLKAQFDIHQAEHQAVKHELEKIEEDFEYIEEQLEQLQREFNKLKSG
modifications: also: N-terminal Fluorescein or Cy5
notes: as for B2
